Source: US20200317768A1 (published 2020)

T1: human FcγRIIaH extracellular domain with C-terminal His-tag (human, UniProt P12318 34-217)
T1 construct: Expressed in FreeStyle 293 cells and purified; also called human FcγRIIa (type H); FcgRIIaH; not shown: C-terminal His-tag
T1 sequence: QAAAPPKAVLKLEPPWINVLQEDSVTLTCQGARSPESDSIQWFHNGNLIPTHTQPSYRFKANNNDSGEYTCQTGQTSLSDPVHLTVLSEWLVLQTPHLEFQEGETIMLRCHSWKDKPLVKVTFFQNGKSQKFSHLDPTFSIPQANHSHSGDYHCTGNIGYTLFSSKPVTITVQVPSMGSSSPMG

T2: cynomolgus monkey FcγRIIb extracellular domain with C-terminal His-tag (cynomolgus monkey)
T2 construct: Expressed in FreeStyle 293 cells and purified; also called cyno FcγRIIb; cynoFcγRIIb; not shown: C-terminal His-tag
T2 chain: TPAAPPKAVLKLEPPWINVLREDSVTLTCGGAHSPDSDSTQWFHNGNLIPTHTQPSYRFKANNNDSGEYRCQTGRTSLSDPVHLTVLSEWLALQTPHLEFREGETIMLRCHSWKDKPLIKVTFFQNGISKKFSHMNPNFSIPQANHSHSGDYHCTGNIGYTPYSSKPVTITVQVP

T3: cynomolgus monkey FcγRIIa1 extracellular domain with C-terminal His-tag (cynomolgus monkey)
T3 construct: Expressed in FreeStyle 293 cells and purified; also called cyno FcγRIIa1; cynoFcgRIIa1; not shown: C-terminal His-tag
T3 chain: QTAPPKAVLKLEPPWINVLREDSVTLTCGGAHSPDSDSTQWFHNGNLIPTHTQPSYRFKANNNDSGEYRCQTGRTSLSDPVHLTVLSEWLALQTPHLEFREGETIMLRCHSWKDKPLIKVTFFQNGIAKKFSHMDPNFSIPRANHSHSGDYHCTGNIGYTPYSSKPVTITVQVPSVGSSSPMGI

T4: cynomolgus monkey FcγRIIIaS extracellular domain with C-terminal His-tag (cynomolgus monkey, UniProt Q8SPW2 21-206 at identity 1.00))
T4 construct: Expressed in FreeStyle 293 cells and purified; also called cyno FcγRIIIaS; cynoFcγRIIIaS; not shown: C-terminal His-tag
T4 chain: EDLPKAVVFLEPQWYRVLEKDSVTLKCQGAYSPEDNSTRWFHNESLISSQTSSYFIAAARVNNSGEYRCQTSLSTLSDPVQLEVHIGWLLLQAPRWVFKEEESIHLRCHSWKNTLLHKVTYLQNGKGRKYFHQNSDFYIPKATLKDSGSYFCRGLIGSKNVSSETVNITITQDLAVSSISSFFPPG

T5: human FcγRIIaR extracellular domain with C-terminal His-tag (human, UniProt P12318 34-217)
T5 construct: Expressed in FreeStyle 293 cells and purified; also called human FcγRIIa (type R); FcgRIIaR; not shown: C-terminal His-tag
T5 chain: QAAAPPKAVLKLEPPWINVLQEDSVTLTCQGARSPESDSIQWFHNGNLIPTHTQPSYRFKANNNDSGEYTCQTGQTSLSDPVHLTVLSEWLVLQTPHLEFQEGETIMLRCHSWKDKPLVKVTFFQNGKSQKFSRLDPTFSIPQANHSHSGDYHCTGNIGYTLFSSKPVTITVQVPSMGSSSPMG

T6: human FcγRIIb extracellular domain with C-terminal His-tag (human, UniProt P31994 43-217)
T6 construct: Expressed in FreeStyle 293 cells and purified; also called humanFcgRIIb; not shown: C-terminal His-tag
T6 sequence: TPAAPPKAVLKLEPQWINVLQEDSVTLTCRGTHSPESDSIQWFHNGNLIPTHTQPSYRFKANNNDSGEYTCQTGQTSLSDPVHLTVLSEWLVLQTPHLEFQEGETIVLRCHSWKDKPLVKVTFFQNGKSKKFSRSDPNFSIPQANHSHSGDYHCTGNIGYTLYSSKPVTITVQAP

T7: cynomolgus monkey FcγRIIa3 extracellular domain with C-terminal His-tag (cynomolgus monkey)
T7 construct: Expressed in FreeStyle 293 cells and purified; also called cyno FcγRIIa3; cynoFcgRIIa3; not shown: C-terminal His-tag
T7 chain: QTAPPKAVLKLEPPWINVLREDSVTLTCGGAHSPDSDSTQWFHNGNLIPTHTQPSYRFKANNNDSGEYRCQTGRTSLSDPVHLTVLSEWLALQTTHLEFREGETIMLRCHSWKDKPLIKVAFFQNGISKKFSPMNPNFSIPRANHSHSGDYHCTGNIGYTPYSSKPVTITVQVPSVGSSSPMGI

T8: cynomolgus monkey FcγRIIa2 extracellular domain with C-terminal His-tag (cynomolgus monkey)
T8 construct: Expressed in FreeStyle 293 cells and purified; also called cyno FcγRIIa2; cynoFcgRIIa2; not shown: C-terminal His-tag
T8 chain: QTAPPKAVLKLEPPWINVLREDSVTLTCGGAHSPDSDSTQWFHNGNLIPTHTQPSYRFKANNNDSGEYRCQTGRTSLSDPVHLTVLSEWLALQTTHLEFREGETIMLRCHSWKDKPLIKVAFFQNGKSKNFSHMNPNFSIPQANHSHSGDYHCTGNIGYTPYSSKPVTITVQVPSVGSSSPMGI


What was measured:
Assay in all cases: SPR (Biacore); KD of SG1 divided by KD of the variant for this FcgR;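 further: relative to parent M103205H795-SG1 carrying the SG1 human heavy chain constant region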
[1] = molecular target: T1, human FcγRIIaH extracellular domain …
Procedure: (§1) Regarding such interactions, KD values were calculated using the following 1:1 binding model described in BIACORE® T100 Software Handbook BR1006-48 Edition AE.
(§2) The behavior of interacting molecules according to the 1:1 binding model on BIACORE® can be described by Equation 1: Req=C·R max/(KD+C)+RI, wherein, Req is a plot of steady-state binding levels to analyte concentration. C is concentration, RI is bulk refractive index contribution in the sample, and Rmax is analyte binding capacity of the surface. When this equation is rearranged, KD can be expressed as Equation 2: KD=C·Rmax/(Req−RI)−C. KD can be calculated by substituting the values of Rmax, RI, and C into Equation 1 or Equation 2. From the current measurement conditions, RI=0, C=2 μmol/L can be used.
(§3) The variants were expressed using M103202L889-SK1 as the light chain and their affinity was analyzed.

[2] = molecular target: T2, cynomolgus monkey FcγRIIb extracellular …
Procedure: as §1, §2, §3

[3] = molecular target: T9, human FcγRIIIaV extracellular domain with C-terminal His-tag (human, UniProt P08637 17-208)
T9 construct: Expressed in FreeStyle 293 cells and purified; also called FcgRIIIaV; not shown: C-terminal His-tag
Procedure: as §1, §2, §3

[4] = molecular target: T3, cynomolgus monkey FcγRIIa1 …
Procedure: as §1, §2, §3

[5] = molecular target: T4, cynomolgus monkey FcγRIIIaS …
Procedure: as §1, §2, §3

[6] = molecular target: T5, human FcγRIIaR extracellular domain …
Procedure: as §1, §2, §3

[7] = molecular target: T6, human FcγRIIb extracellular domain with …
Procedure: as §1, §2, §3

[8] = molecular target: T7, cynomolgus monkey FcγRIIa3 …
Procedure: as §1, §2, §3

[9] = molecular target: T8, cynomolgus monkey FcγRIIa2 …
Procedure: as §1, §2, §3

T9 sequence (P08637 17-208 F176V): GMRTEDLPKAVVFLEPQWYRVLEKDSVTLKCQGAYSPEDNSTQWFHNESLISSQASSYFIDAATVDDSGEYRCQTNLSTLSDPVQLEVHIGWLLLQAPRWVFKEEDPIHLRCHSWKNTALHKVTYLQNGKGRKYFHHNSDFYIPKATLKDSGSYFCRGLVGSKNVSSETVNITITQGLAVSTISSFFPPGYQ

Binder | KD fold (SG1 = 1) [1] [fold] | KD fold (SG1 = 1) [2] [fold] | KD fold (SG1 = 1) [3] [fold] | KD fold (SG1 = 1) [4] [fold] | KD fold (SG1 = 1) [5] [fold] | KD fold (SG1 = 1) [6] [fold] | KD fold (SG1 = 1) [7] [fold] | KD fold (SG1 = 1) [8] [fold] | KD fold (SG1 = 1) [9] [fold]
M103205H795-MY204 / M103202L889-SK1 (antibody, human IgG1, kappa, Fc variant of M103205H795-SG1, expressed with M103202L889-SK1 as light chain) heavy: QVTLKESGPVLVKPTETLTLTCTVSGIDLSHDDISWVRQAPGKGLEWVGIISYAGSTYYASWAKGRLTISKDTSKNQVVLTMTNMDPVDTATYYCARGVPAYSHGGDLWGQGTLVTVSSASTKGPSVFPLAPSSKSTSGGTAALGCLVKDYFPEPVTVSWNSGALTSGVHTFPAVLQSSGLYSLSSVVTVPSSSLGTQTYICNVNHKPSNTKVDKKVEPKSCDKTHTCPPCPAPELLNGPVVFLFPPKPKDTLMISRTPEVTCVVVDVSEEDPEVKFNWYVDGVEVHNAKTKPREELYNSTYRVVSVLTVLHQDWLNGKEYKCKVSNKALPKPIEKTISKAKGQPREPQVYTLPPSREEMTKNQVSLTCLVKGFYPSDIAVEWESNGQPENNYKTTPPVLDSDGSFFLYSKLTVDKSRWQQGNVFSCSVMHEALHNHYTQKSLSLSP light: DIVMTQSPATLSLSPGERATLSCTSSQSVYHANWLSWFQQKPGQPPKLLIYWASTLAYGVPSRFSGSGSGTDFTLTISSLQPEDAATYYCAGGYGGGRYAFGQGTKVEIKRTVAAPSVFIFPPSDEQLKSGTASVVCLLNNFYPREAKVQWKVDNALQSGNSQESVTEQDSKDSTYSLSSTLTLSKADYEKHKVYACEVTHQGLSSPVTKSFNRGEC | 0.5 | 3.2 | 0.07 | 2.5 | 0.1 | 0.4 | 3.5 | 8.8 | 3.6
M103205H795-MY205 / M103202L889-SK1 (antibody, human IgG1, kappa, Fc variant of M103205H795-SG1, expressed with M103202L889-SK1 as light chain; also called MS1032LO06-MY205) heavy: QVTLKESGPVLVKPTETLTLTCTVSGIDLSHDDISWVRQAPGKGLEWVGIISYAGSTYYASWAKGRLTISKDTSKNQVVLTMTNMDPVDTATYYCARGVPAYSHGGDLWGQGTLVTVSSASTKGPSVFPLAPSSKSTSGGTAALGCLVKDYFPEPVTVSWNSGALTSGVHTFPAVLQSSGLYSLSSVVTVPSSSLGTQTYICNVNHKPSNTKVDKKVEPKSCDKTHTCPPCPAPELLNGPSVFLFPPKPKDTLMISRTPEVTCVVVDVSDEDPEVKFNWYVDGVEVHNAKTKPREELYNSTYRVVSVLTVLHQDWLNGKEYKCKVSNKALPKPIEKTISKAKGQPREPQVYTLPPSREEMTKNQVSLTCLVKGFYPSDIAVEWESNGQPENNYKTTPPVLDSDGSFFLYSKLTVDKSRWQQGNVFSCSVMHEALHNHYTQKSLSLSP light: DIVMTQSPATLSLSPGERATLSCTSSQSVYHANWLSWFQQKPGQPPKLLIYWASTLAYGVPSRFSGSGSGTDFTLTISSLQPEDAATYYCAGGYGGGRYAFGQGTKVEIKRTVAAPSVFIFPPSDEQLKSGTASVVCLLNNFYPREAKVQWKVDNALQSGNSQESVTEQDSKDSTYSLSSTLTLSKADYEKHKVYACEVTHQGLSSPVTKSFNRGEC | 1.5 | 7.2 | 0.06 | 3.5 | 0.06 | 0.8 | 8 | 5.7 | 4.6
M103205H795-MY206 / M103202L889-SK1 (antibody, human IgG1, kappa, Fc variant of M103205H795-SG1, expressed with M103202L889-SK1 as light chain) heavy: QVTLKESGPVLVKPTETLTLTCTVSGIDLSHDDISWVRQAPGKGLEWVGIISYAGSTYYASWAKGRLTISKDTSKNQVVLTMTNMDPVDTATYYCARGVPAYSHGGDLWGQGTLVTVSSASTKGPSVFPLAPSSKSTSGGTAALGCLVKDYFPEPVTVSWNSGALTSGVHTFPAVLQSSGLYSLSSVVTVPSSSLGTQTYICNVNHKPSNTKVDKKVEPKSCDKTHTCPPCPAPELLNGPVVFLFPPKPKDTLMISRTPEVTCVVVDVSDEDPEVKFNWYVDGVEVHNAKTKPREELYNSTYRVVSVLTVLHQDWLNGKEYKCKVSNKALPKPIEKTISKAKGQPREPQVYTLPPSREEMTKNQVSLTCLVKGFYPSDIAVEWESNGQPENNYKTTPPVLDSDGSFFLYSKLTVDKSRWQQGNVFSCSVMHEALHNHYTQKSLSLSP light: DIVMTQSPATLSLSPGERATLSCTSSQSVYHANWLSWFQQKPGQPPKLLIYWASTLAYGVPSRFSGSGSGTDFTLTISSLQPEDAATYYCAGGYGGGRYAFGQGTKVEIKRTVAAPSVFIFPPSDEQLKSGTASVVCLLNNFYPREAKVQWKVDNALQSGNSQESVTEQDSKDSTYSLSSTLTLSKADYEKHKVYACEVTHQGLSSPVTKSFNRGEC | 0.7 | 4 | 0.1 | 4 | 0.11 | 0.8 | 5.1 | 5.7 | 6.5
M103205H795-MY207 / M103202L889-SK1 (antibody, human IgG1, kappa, Fc variant of M103205H795-SG1, expressed with M103202L889-SK1 as light chain) heavy: not shown light: DIVMTQSPATLSLSPGERATLSCTSSQSVYHANWLSWFQQKPGQPPKLLIYWASTLAYGVPSRFSGSGSGTDFTLTISSLQPEDAATYYCAGGYGGGRYAFGQGTKVEIKRTVAAPSVFIFPPSDEQLKSGTASVVCLLNNFYPREAKVQWKVDNALQSGNSQESVTEQDSKDSTYSLSSTLTLSKADYEKHKVYACEVTHQGLSSPVTKSFNRGEC | 0.5 | 2.2 | 0.1 | 2.1 | 0.08 | 0.4 | 2.9 | 2.5 | 8.6
